# Source: paper PMC6699766 (Nature plants, 2019)
# B1: IsiA protein of Synechocystis sp. PCC 6803 (natural protein)
# chain: not shown
# Biological target: the molecule itself
# Assay: negative stain TEM
protein,measurement,value
B1,stoichiometry N,18
